Series [1] concerns the target T1, HER3 extracellular domain (HER3ECD, ErbB3) (Homo sapiens, UniProt P21860 SEQ:20-643). Nature of the series: EMSA; 8 pmol RNA with 24 pmol HER3ECD, 37 C. The note with it: tags: C-terminal V5 and hexa-His (pMT/BiP/V5-His A, S2 insect cells); chain copies: oligomeric (self-associated; stated); label: internal 32P. The protocol: (§1) For screening purposes, 8 pmol of internally labeled aptamer were incubated in binding buffer with 24 pmol of HER3ECD at 37° C. for 10 minutes and analyzed on 6% non-denaturing polyacrylamide gels as described above. Aptamers displaying substantial shift were reverse transcribed and sequenced. For subsequent analysis of A30 binding, internally labeled and unlabeled A30 was denatured at 90° C. for 2 min in PBS and cooled on ice for 1 min. A30 was incubated with HER3ECD in binding buffer for 10 min at 37° C. at the indicated concentrations and in the presence 0.5 μM tRNA and was analyzed by electrophoresis on a non-denaturing 6% polyacrylamide gel at 4° C. Were indicated, HER3ECD and heregulin were premixed at room temperature three minutes before the addition of A30.
In general terms: In EMSA bound probe runs differently from free probe, usually more slowly.

The target of series [2] is HER2 extracellular domain (HER2-ECD) (Homo sapiens, UniProt P04626 SEQ:23-652). Briefly: EMSA; 0.5 uM protein. Conditions: label: internal 32P; triple hairpin loop.
A further series deals with T2, heregulin (Homo sapiens).
T2 chain: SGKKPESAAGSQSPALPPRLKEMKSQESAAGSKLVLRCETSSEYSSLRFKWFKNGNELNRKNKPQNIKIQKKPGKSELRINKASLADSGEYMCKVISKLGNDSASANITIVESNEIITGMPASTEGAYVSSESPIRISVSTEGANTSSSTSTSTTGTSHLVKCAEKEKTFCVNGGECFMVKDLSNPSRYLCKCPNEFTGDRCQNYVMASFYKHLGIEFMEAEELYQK
Briefly: EMSA; 0.5 uM protein. The note with it: label: internal 32P; triple hairpin loop.

Series [3] has as its target T3, HER3 on MCF7 cells (with endogenous HER2) (Homo sapiens, UniProt P21860 SEQ:20-1342). Nature of the series: competition; low affinity site on MCF7 cells, 4 C, PBS, +/-2.2, Scatchard. The note with it: label: internal 32P; triple hairpin loop. How it is done: (§2) MCF7 cells (ATCC) were grown to 70% confluency on 6 well plates and washed with ice cold PBS. Following the washes, cells were incubated at 4° C. with 1 mL ice cold PBS or PBS containing 200 nM heregulin. After four hours an equal volume of ice cold PBS containing two microliter internally ³²P labeled A30 aptamer (80,000 cpm/μL), 20 μL RNAse inhibitor (20 units/μL), and varying concentrations of unlabeled aptamer were added. After four hours incubation, the supernatant was removed, and cells were washed three times with ice cold PBS. Displaced and bound radiolabeled aptamer was measured in duplicate.
(§3) Several lines of evidence provide evidence that the interaction of A30 with HER3ECD involves at least two different modes of binding. […] Addition of heregulin has two consequences. […] With respect to the heregulin-induced increase and dual mode of binding, we observed a similar, although less pronounced, effect for A30 binding to MCF7 cells (FIG. 4B+C). MCF7 cells endogenously express both HER3 and HER2. […] The addition of heregulin results in an increase in the number of A30 binding sites FIG. 4B), but this increase is relatively small (25% total 17% for low affinity and 8% for high affinity sites).

The target of series [4] is T3, HER3 on MCF7 cells (with endogenous …). Briefly: competition; high affinity site on MCF7 cells, 4 C, PBS, +/-0.2, Scatchard. Conditions: label: internal 32P; triple hairpin loop. How it is done:
as §2, §3

Series [5] has the same target. Nature of the series: cell_activity; half-maximal inhibition of heregulin-specific MCF7 growth; maximum 50% inhibition. Conditions: label: internal 32P; triple hairpin loop. How it is done:
MCF7 cells were seeded in 96 well plates (2500 cells/well) in RPMI, 2% fetal bovine serum, 2 units of RNAse inhibitor/ml and varying concentrations of heregulin and aptamer. After two days, cell growth was determined using an MTT/tetrazolium based assay (Promega). Cell growth was equated with the absorbance of converted and solubilized dye at 560 nm. All samples were determined in triplicate.
Next, we evaluated the ability of A30 to interfere with receptor activation by wild type heregulin. […] In contrast, the activation of HER2 by EGF, which proceeds through hetetodimers of EGFR and HER2, is not inhibited by A30 (FIG. 7b). The low intensity of tyrosine phosphorylation of HER2 after stimulation by EGF is a reflection of the lower levels of EGFR (5000/cell) compared to HER2 (15,000) and HER3 (25,000) (see, e.g. Aguilar et al. (1999) Oncogene 18, 6050-62) and the fact that EGFR signaling proceeds only in part through heterodimers with HER2. To evaluate if the inhibition of tyrosine phosphorylation is reflected in a reduction in heregulin-specific growth stimulation, we incubated MCF7 cells in the presence of different concentrations of A30 and heregulin for two days (FIG. 8). […] Half-maximal inhibition occurs at around 1 nM A30. The addition of A30 alone has little effect on the growth of MCF7 cells.

Series [6] has as its target T1, HER3 extracellular domain (HER3ECD, …). Briefly: EMSA; apparent Kd by displacement with unlabeled A30; no heregulin; 10 mM HEPES pH 7.4, 100 mM NaCl, 2.5 mM MgCl2, 37 C, 0.5 uM tRNA. Conditions: tags: C-terminal V5 and hexa-His (pMT/BiP/V5-His A, S2 insect cells); chain copies: oligomeric (self-associated; stated); label: internal 32P; triple hairpin loop. How it is done:
as §1, §3

For series [7] the target is unchanged. Nature of the series: EMSA; 8 pmol RNA with 24 pmol HER3ECD, 37 C; A18 and A30 do not displace each other. The note with it: tags: C-terminal V5 and hexa-His (pMT/BiP/V5-His A, S2 insect cells); chain copies: oligomeric (self-associated; stated); label: internal 32P. How it is done:
as §1

The values below come from patent US20070027096, “Aptamers to human epidermal growth factor receptor-3” (published 2007).

T3 sequence (P21860 20-1342 E560G/E1064G): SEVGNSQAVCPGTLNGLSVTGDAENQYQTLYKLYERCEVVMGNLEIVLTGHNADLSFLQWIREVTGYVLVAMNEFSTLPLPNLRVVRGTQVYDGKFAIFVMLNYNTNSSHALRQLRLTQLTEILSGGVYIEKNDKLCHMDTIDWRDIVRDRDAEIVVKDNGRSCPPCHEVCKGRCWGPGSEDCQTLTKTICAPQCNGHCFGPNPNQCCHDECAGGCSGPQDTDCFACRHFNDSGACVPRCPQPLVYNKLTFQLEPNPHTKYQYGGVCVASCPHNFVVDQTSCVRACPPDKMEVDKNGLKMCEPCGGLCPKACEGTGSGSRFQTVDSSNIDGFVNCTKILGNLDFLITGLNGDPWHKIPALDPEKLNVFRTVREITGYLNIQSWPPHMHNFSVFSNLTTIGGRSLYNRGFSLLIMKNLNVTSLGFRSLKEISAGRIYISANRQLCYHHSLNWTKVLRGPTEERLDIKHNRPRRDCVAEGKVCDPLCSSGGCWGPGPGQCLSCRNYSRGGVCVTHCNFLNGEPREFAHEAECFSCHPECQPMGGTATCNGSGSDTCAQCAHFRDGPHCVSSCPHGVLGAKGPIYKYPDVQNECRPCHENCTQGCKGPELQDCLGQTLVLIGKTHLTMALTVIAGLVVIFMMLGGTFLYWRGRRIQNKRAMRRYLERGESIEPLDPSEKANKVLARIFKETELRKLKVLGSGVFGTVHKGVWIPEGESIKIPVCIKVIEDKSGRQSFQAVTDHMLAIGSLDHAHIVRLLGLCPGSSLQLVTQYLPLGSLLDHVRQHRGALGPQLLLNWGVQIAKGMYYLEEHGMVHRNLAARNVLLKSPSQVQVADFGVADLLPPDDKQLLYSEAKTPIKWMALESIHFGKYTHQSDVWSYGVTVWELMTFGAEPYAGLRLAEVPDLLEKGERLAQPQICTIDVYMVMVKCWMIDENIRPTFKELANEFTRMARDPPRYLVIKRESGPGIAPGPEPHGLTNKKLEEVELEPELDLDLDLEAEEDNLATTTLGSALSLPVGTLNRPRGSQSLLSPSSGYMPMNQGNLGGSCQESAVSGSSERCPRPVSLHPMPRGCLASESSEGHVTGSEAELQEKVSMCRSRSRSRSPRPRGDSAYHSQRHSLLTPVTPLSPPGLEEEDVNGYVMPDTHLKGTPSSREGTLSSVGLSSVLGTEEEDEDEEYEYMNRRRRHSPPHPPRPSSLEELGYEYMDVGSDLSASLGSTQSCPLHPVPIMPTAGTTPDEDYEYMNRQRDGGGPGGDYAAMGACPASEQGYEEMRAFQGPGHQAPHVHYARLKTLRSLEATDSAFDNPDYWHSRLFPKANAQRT
T1 sequence (P21860 20-643 E560G): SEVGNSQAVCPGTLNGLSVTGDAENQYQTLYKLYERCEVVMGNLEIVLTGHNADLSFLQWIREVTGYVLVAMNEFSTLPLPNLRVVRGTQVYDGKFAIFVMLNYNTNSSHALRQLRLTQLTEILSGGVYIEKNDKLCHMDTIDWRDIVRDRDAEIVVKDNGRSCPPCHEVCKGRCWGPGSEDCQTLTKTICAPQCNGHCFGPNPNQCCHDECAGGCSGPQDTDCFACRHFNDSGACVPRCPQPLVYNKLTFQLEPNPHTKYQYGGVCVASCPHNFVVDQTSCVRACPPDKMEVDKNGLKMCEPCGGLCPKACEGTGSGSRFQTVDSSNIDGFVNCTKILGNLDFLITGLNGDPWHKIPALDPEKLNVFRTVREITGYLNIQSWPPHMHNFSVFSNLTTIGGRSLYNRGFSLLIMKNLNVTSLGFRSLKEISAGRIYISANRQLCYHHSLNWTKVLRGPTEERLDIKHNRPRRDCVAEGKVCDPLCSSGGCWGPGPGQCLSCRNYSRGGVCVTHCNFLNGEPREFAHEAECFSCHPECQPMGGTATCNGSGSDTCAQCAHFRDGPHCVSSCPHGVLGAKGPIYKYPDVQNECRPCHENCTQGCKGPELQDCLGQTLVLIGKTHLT

B1: A37 (ssRNA)
RNA: GGGAAUUCCGCGUGUGCUUGAGAGGUCGUGCCAACUCUCAAGGUUGUCUUUGCUCUCCGCUCUGUGGUCCGUUCGGGAUCCUC
On to B1, for which, in series [1], the binding result is “binds”.

B2: A19 (ssRNA)
RNA: GGGAAUUCCGCGUGUGCAGAUCAGGACAGAGCGCACAGGUGCCAUCCUGGUCUAACGCCCUCGAUGGUCCGUUCGGGAUCCUC
Take B2: the binding result in series [1] was “binds”.

B3: A23 (ssRNA)
RNA: GGGAAUUCCGCGUGUGCGAGGGGCGAGGACGCCGAGUAUAGCCCCUAGAGGUGGAUGUUUCACGGUGUCCGUUCGGGAUCCUC
B3: the binding result in series [1] is listed as “binds”.

B4: A6 (ssRNA)
RNA: GGGAAUUCCGCGUGUGCAGAACAAUCGCAUAGGCCGCAAGGUUAGUUUCGUUGUCCGCCCGGUGCAGUCCGUUCGGGAUCCUC
Turning to B4, the binding result in series [1] was “binds”.

B5: A30 (ssRNA)
RNA: GGGAAUUCCGCGUGUGCCAGCGAAAGUUGCGUAUGGGUCACAUCGCAGGCACAUGUCAUCUGGGCGGUCCGUUCGGGAUCCUC
B5: the binding result (in series [2]; in the series with heregulin) was “no binding” in each case. The Kd is 21 nM in series [3], 3.3 nM in series [4] and 45 nM in series [6]. Also, the concentration for half-maximal inhibition (IC50) (commonly the concentration needed to halve the response being measured) in series [5] was approximately 1 nM.

B6: A18 (ssRNA)
RNA: GGGAAUUCCGCGUGUGCACGAGUAUAGCCCACAUGGCACGACAGGGACGUUUCAUGUGCACAGUUGGUCCGUUCGGGAUCCUC
B6: the binding result in series [7] is on record as “binds”.
